The source of these data is the supplement of paper PMC10126150.

± gives the standard deviation of the averaged measurements.
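Also: ATP exposure 15 min at 22 °C before imaging.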

This data set has as its system ATP. The experiment in a line: switch fluorescence ratio, 500 uM ATP over buffer (Cy3 cluster intensity, sum of 5 cycles each) (fold (ratio)); higher = stronger signal-on switching upon ATP binding; sequences stand for … in TCGTCGGCAGCGTCAGATGTGTATAAGAGACAGTTTTTTTTTTTTTTTTTTTTTTTTT…TC. The note with it: aptamer strand: ATP DNA aptamer (quencher-CACCTGGGGGAGTATTGCGGAGGAAGG + anchor), 100 nM annealed; ATP concentration: 500 uM. In a few lines: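 Cy3-labelled switching-strand clusters on a modified Illumina MiSeq flow-cell were annealed to 100 nM quencher-labelled ATP aptamer and imaged first in selection buffer, then after 15 min with 500 uM ATP at 22 °C. NaOH stripping and re-annealing separated each of five buffer/ATP cycles, and clusters outside 100-1000 RFU were excluded. The fluorescence ratio sums target-cycle Cy3 intensity over buffer-cycle Cy3 intensity per cluster and averages it per switch-domain sequence.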
AGAGCAGCTG: the switch fluorescence ratio was determined as 0.998 ± 0.041. As to TTTGGGGGCA, the switch fluorescence ratio worked out at 0.989 ± 0.041.

For the sequence ACTCGAGGGA, the switch fluorescence ratio stood at 1.01 ± 0.011. With TATAAATGAT, the switch fluorescence ratio was determined as 1.06 ± 0.047.

In the case of TAACGAGTCT, the switch fluorescence ratio turned out to be 1.01 ± 0.029.

For GGACGGAGGT, the switch fluorescence ratio is 0.959 ± 0.038. Take AGCTTGGGCG: the switch fluorescence ratio came to 0.995 ± 0.11. As to GCTAATAAAT, the switch fluorescence ratio worked out at 1.046 ± 0.0035. On to ACTTATCTAC, for which the switch fluorescence ratio was 1.05 ± 0.069. As for AAGTTGGAGT, the switch fluorescence ratio was 1.02 ± 0.027.

For TTGTTGGGTT, the switch fluorescence ratio was found to be 1.02 ± 0.061. For TCGGTGTGCA, the switch fluorescence ratio was 0.985 ± 0.024. Regarding TGTTTGACGA, the switch fluorescence ratio was 0.991 ± 0.05. Consider TGACGCATAG, for which the switch fluorescence ratio amounted to 1.7 ± 0.12. CTTTGCTAAC: the switch fluorescence ratio was 2.21 ± 0.072. Consider CATTTCTTG, for which the switch fluorescence ratio turned out to be 0.985 ± 0.029. In the case of ATCGTGGGGA, the switch fluorescence ratio came to 1.012 ± 0.0075. Then GAAATAAAAT, with 1 ± 0.024; and AATCCATGGC, with 0.98678 ± 6.8e-05. To GCGCGCGTTC belongs 1.03 ± 0.045; to AGTTGTTTAG, 1.01 ± 0.012. For AGTAGGGTGT, the switch fluorescence ratio was 0.968 ± 0.029. As to CAGATGTTTT, the switch fluorescence ratio came to 0.987 ± 0.052.

TTTGGGTTCT: the switch fluorescence ratio came out at 1.03 ± 0.031.

Take TTCATCGACT: the switch fluorescence ratio came to 0.996 ± 0.047. Turning to AAAATCAGCC, the switch fluorescence ratio came out at 1.07 ± 0.053. In the case of GAATCTTGGA, the switch fluorescence ratio worked out at 0.99 ± 0.015. As for TTTTCAAGGA, the switch fluorescence ratio is 0.993 ± 0.07. In the case of CTTAAAGGCC, the switch fluorescence ratio amounted to 0.984 ± 0.026. For AGCGACGTTT, the switch fluorescence ratio amounted to 0.9647 ± 0.0064. To TCCGGTTCCT belongs 1.07 ± 0.036; to AGAAGGGGGG, 0.998 ± 0.022; to TCCAAGCTGG, 1.03 ± 0.025. Take CCCCTGGAAT: the switch fluorescence ratio amounted to 1.08 ± 0.03. Consider ATAACGAATG, for which the switch fluorescence ratio stood at 1.01 ± 0.024.

Regarding ATGGAGGGGA, the switch fluorescence ratio was 1 ± 0.021. Regarding TTGAGTGAAT, the switch fluorescence ratio came out at 1 ± 0.042. To CATGTAAGGG belongs 1.003 ± 0.0053. To AAGGAGCTGA belongs 0.9915 ± 0.0037; to AGGATTCGGT, 1.01 ± 0.027. In the case of CCTGGGGCTG, the switch fluorescence ratio is 1.12 ± 0.14. For GTAGTGAGGA, the switch fluorescence ratio is 1.02 ± 0.029. Consider TTAGGATTGG, for which the switch fluorescence ratio was 0.986 ± 0.025. Then TTTAAGCTAC, with 4.03 ± 0.57; and GGGGAAGTTT, with 0.998 ± 0.027. To TAGCTCAGGG belongs 1.065 ± 0.0032; to ATTTTTACTC, 1.01 ± 0.029.

Turning to TGTTAGTAAT, the switch fluorescence ratio amounted to 1.019 ± 0.0087. For the sequence GATTCTTGAG, the switch fluorescence ratio was 1.01 ± 0.032. TAAAGGTTGG: the switch fluorescence ratio came out at 0.962 ± 0.025. As for TTTAGTGGGC, the switch fluorescence ratio worked out at 0.9843 ± 0.0081. For AGCAACCCCG, the switch fluorescence ratio turned out to be 1.22 ± 0.17.

TAGCCGACGG: the switch fluorescence ratio was 1.03 ± 0.058. To TTTGATCACG belongs 1.02 ± 0.031.

For the sequence TGATTTAAGT, the switch fluorescence ratio is 0.992 ± 0.05.

Turning to CCAACCAAGG, the switch fluorescence ratio was 1.16 ± 0.056. To ATGTTGATCT belongs 0.983 ± 0.024. Regarding CCGGAGATTT, the switch fluorescence ratio stood at 1.57 ± 0.028.

As to GATCAAGGGG, the switch fluorescence ratio amounted to 0.9939 ± 0.0078. ACCCTAGGGT: the switch fluorescence ratio was 0.994 ± 0.035. As for ACATCGGCTT, the switch fluorescence ratio worked out at 0.998 ± 0.015. Then GGTGAAGCCT, with 0.991 ± 0.047; and TTACACACAC, with 1.53 ± 0.073; and ATTGTAGTGC, with 0.97 ± 0.021. On to ATGATTGGCC, for which the switch fluorescence ratio was determined as 0.9882 ± 0.0086.

ATACTTTAAA: the switch fluorescence ratio turned out to be 1.17 ± 0.1. GGGAGGGTTG: the switch fluorescence ratio stood at 0.981 ± 0.031. Take CTGGTAGGGA: the switch fluorescence ratio is 1.06 ± 0.044.

Consider TAAGGTTGAC, for which the switch fluorescence ratio came out at 0.9953 ± 0.0035.

With ACGGACCCGG, the switch fluorescence ratio is 1.36 ± 0.42.

Take TTATTGGGAT: the switch fluorescence ratio stood at 0.981 ± 0.033. To CAATGGTGGT belongs 1.01 ± 0.028; to GGTTCGCGGT, 1.02 ± 0.03; to ATTTTGTAGT, 1.02 ± 0.029. Then TAATACTTCG, with 1.03 ± 0.012. For GATGGGGGGG, the switch fluorescence ratio stood at 1 ± 0.028.

As to CGAGGGGAGT, the switch fluorescence ratio turned out to be 1.006 ± 0.0011.

In the case of AGGGGACTTC, the switch fluorescence ratio was 1.04 ± 0.015. On to TTAAGCTGGC, for which the switch fluorescence ratio was 1.05 ± 0.056. TTTAAAGTTT: the switch fluorescence ratio is 0.99 ± 0.029. In the case of GTATTGGGCT, the switch fluorescence ratio is 0.98036 ± 0.00097.

GAAGGGGGTA: the switch fluorescence ratio was determined as 0.996 ± 0.028. Consider AGAGATTACG, for which the switch fluorescence ratio came to 1.02 ± 0.034. GGGTGTTTGT: the switch fluorescence ratio came out at 1 ± 0.018.

Take ACGGTTTTGC: the switch fluorescence ratio is 0.997 ± 0.013. For TTAGTCATGC, the switch fluorescence ratio is 1.09 ± 0.12. On to CGACTGGCTG, for which the switch fluorescence ratio is 1.01 ± 0.049. Take TTGAGGCGGG: the switch fluorescence ratio amounted to 0.993 ± 0.045. Turning to AGTGAAAATG, the switch fluorescence ratio worked out at 1.05 ± 0.029.

As to CGGATGGGGC, the switch fluorescence ratio amounted to 1 ± 0.042.

Turning to CGTCACTAAT, the switch fluorescence ratio is 1.21 ± 0.25.

For CGATTGCTAG, the switch fluorescence ratio turned out to be 1.02 ± 0.058.

Turning to TTTGGCCAAG, the switch fluorescence ratio is 0.996 ± 0.029. Then GGGGTTCATT, with 1.01 ± 0.04; and TGGGAGGAAT, with 0.988 ± 0.037. With ACTCGGTCTG, the switch fluorescence ratio came out at 1.02 ± 0.027. Then AATTATAGTT, with 0.99268 ± 5.5e-05; and ATTCAGCATT, with 1.05 ± 0.02; and GATAGTGAAA, with 1.02 ± 0.035. Regarding TTATTTGGGT, the switch fluorescence ratio stood at 1 ± 0.021.

Regarding TCTCATGTAG, the switch fluorescence ratio is 1.018 ± 0.009.

Take GGTTAGGGGT: the switch fluorescence ratio stood at 1.08 ± 0.24. Then TTTCTAACTC, with 1 ± 0.053; and GGACGTTGAG, with 0.985 ± 0.021. Turning to CCAGTCGTCT, the switch fluorescence ratio came to 1.02 ± 0.026.

Turning to GGTTGACATA, the switch fluorescence ratio was found to be 1.01 ± 0.025. Then GAAGTAGTGG, with 1.01 ± 0.014; and TATCACATTT, with 1.02 ± 0.018; and CTGATGCGCG, with 1 ± 0.016. Regarding TGTTTTACGA, the switch fluorescence ratio turned out to be 1.07 ± 0.043.

With TAACTTTTCG, the switch fluorescence ratio stood at 1.004 ± 0.0028. In the case of TCTAGCGTAC, the switch fluorescence ratio is 2.64 ± 0.44. To AGGTTTAGTC belongs 0.9945 ± 0.0026.

In the case of GTTTGTATGG, the switch fluorescence ratio was 1.01 ± 0.018.

ATGGTCGAGC: the switch fluorescence ratio is 0.9822 ± 0.0076. As for GGGAGGCCGT, the switch fluorescence ratio turned out to be 1.04 ± 0.027. In the case of CGTTTATGTG, the switch fluorescence ratio came to 0.9953 ± 0.0089. For CAGGTCTTGC, the switch fluorescence ratio was 1 ± 0.015. Turning to GTTGCGGGTT, the switch fluorescence ratio came to 1.01 ± 0.039. For GTTGGGGAGG, the switch fluorescence ratio is 1.01 ± 0.035.
